How the values were obtained:
Etanercept [1] = biological target: Etanercept (UniProt P20333); experiment: SEC-MALS; formulation after forced degradation (stirring at 600 rpm, 60°C, 2 h); BioResolve SEC mAb column, 50 mM phosphate buffer pH 7, 200 mM KCl, 30°C, 0.5 ml/min
Etanercept [2] = biological target: Etanercept (UniProt P20333); experiment: SEC-MALS; untreated formulation diluted 25 times in water to 2 mg/ml; BioResolve SEC mAb column, 50 mM phosphate buffer pH 7, 200 mM KCl, 30°C, 0.5 ml/min

stoichiometry N (Etanercept [1]): 23 | stoichiometry N (Etanercept [2]): 3
Substance: Etanercept (from UniProt P20333 23-257) (Fc fusion)

Source: article PMC8686473
